Target: the molecule itself
Assay: non-reducing SDS-PAGE and Western blot

B1: matrix metalloproteinase-9 (MMP-9) (enzyme)
chain: not shown
Q: How did the “stoichiometry N” value turn out when B1 was run?
A: The value was 2.

Reference: publication PMC3039075 (Nitric oxide : biology and chemistry / official journal of …, 2010)
